Data set [1] in a line: melting temperature (DSF); higher = more thermostable. The procedure, abridged: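 Enzymes made in E. coli C41(DE3) were nickel-bead purified and cut free with SUMO protease before testing. Differential scanning fluorimetry gave each melting temperature. For this, 5 μL 5X Sypro Orange was added to 45 μL enzyme (0 to 0.3 mg/mL) in sealed PCR plates, and a Bio-Rad CFX96 read fluorescence from 25 °C over 250 cycles of 0.3 °C each, ramping at 0.3 °C/s.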

Data set [2] in a line: purified protein yield per well (BCA); higher = higher soluble expression. The method in brief: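 Candidate enzymes were made in 2 mL autoinduction cultures of E. coli C41(DE3) with 100 µg/mL kanamycin, at 37 °C for 2 h and then 18 °C for 40 h, and purified with Ni-charged magnetic beads and SUMO protease cleavage. The Pierce Rapid Gold BCA kit gave purified protein yield per well. Values lower than 25 ug (0.1 mg/mL) are below the detection threshold.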

Data set [3] in a line: PET hydrolysis, aromatic products released after 48 h (umol product/mg enzyme); higher = more PET depolymerization activity. The method in brief: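 Tagless, SUMO-cleaved candidate enzymes were purified on nickel beads, and 5 μg (50 μL) was added to 3.5 mg amorphous PET film or crystalline PET powder in 450 μL buffer. Buffers were 50 mM NaCitrate (pH 4.5, 5.5), 50 mM NaPhosphate (pH 6.5, 7.5) or glycine (pH 8.5). Sealed plates were incubated 48 h at 40 or 60 °C without shaking. PET hydrolysis activity is the aromatic product in the supernatant, read by absorbance at 260 and 280 nm against buffer blanks and expressed per mg enzyme.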

Setting [4] is: substrate: cryPow, 40 °C, pH 5.5.
Where [5] appears, read: substrate: cryPow, 40 °C, pH 6.5.
Where [6] appears, read: substrate: cryPow, 40 °C, pH 7.5.
The mark [7] stands for this setting: substrate: cryPow, 40 °C, pH 8.5.
Setting [8] is: substrate: cryPow, 60 °C, pH 5.5.
[9] abbreviates: substrate: cryPow, 60 °C, pH 6.5.
Setting [10] is: substrate: cryPow, 60 °C, pH 7.5.
Where [11] appears, read: substrate: cryPow, 60 °C, pH 8.5.
Setting [12] is: substrate: cryPow, 40 °C, pH 4.5.
Setting [13] is: substrate: cryPow, 60 °C, pH 4.5.

± gives the standard deviation of the averaged measurements. A value given as a limit tells only on which side of the number the result lay.

The sequence “GQAAVPVAVAGTSAFAKGPDPTEQSIQAQRGPFATAQRTVPSEAGRAFNRGTVHYPTDTSHGTYGAVVVSPGFFGPEFSVAWYGSTLASHGFVVLTLETNFLFDQPDARATQLLAGLDWLAARSPVKDRVDPNRLAVMGHSMGGGGTLIAASRNPALKAAIPLTPWNTSPDFSTVTVPTLVLGTDNDTVAPVARHADPMYASLRDKPDEGYVKLRGDHFTPIRYTAAATRFIVPWLKRYVDEDTRYSRFLCPLPAPDATLVSFELRCPV [DP040]” came in with a melting temperature in data set [1] of 40.3 C. For the same sequence, the “purified protein yield per well” value in data set [2] came to 28 µg. Moreover, the PET hydrolysis in data set [3] (setting [4]) was less than 3; in data set [3] (setting [5]), 3; in data set [3] (setting [6]), less than 3; in data set [3] (setting [7]) it was less than 3.
As to “ADNPYQRGPDPTNASIEAATGPFAVGTQPIVGASGFGGGQIYYPTDTSQTYGAVVIVPGFISVWAQLNWLGPRLASQGFVVIGIETSVITDLPDPRGDQALAALDWATTRSPVASRIDRTRLAAAGWSMGGGGLRRAALQRPSLKAIVGMAPWNGERNWSAVTVPTLFFGGSSDAVASPNDHAKPFYNSITRAEKDYIELRNADHFFPTSANTTMAKYFISWLKRWVDNDTRYTQFLCPGPSTGLFAPVSASMNTCPF [DP077]”, the melting temperature in data set [1] was found to be 60.1 C. Besides, the “purified protein yield per well” value in data set [2] was 87 µg. For the same sequence, the PET hydrolysis turned out to be 24 in data set [3] (setting [4]); 73 in data set [3] (setting [5]); 90 in data set [3] (setting [6]); 87 in data set [3] (setting [7]); 6 in data set [3] (setting [8]); 23 in data set [3] (setting [9]). Besides, the PET hydrolysis was 32 in data set [3] (setting [10]) and 26 in data set [3] (setting [11]).
The sequence “ADNPYQRGPDPTAASIAAVTGPFATASVTVPRGNGFGGGVIYYPTDTSQGTFGGIAISPGLNGTWPGIAWLGPRLASQGFVVFGIETNNLNDSPTSRGTQLLAALDYLTGSSSVRTRVDAGRLAVAGHSMGGGGALDAALRRPSLRATIGNAPHLPSGSLANDRVPTLIYAMQNDTLVPPSRLTSLYNTVPATTERGYLEITGAGHNYIGQPSTILARTMIPWLKIFVDDDARYSQFLCPLTDRSGISQYQSSCPLITTSPTTGPTAQPTTAAPTTTPTTPPVGGPCEATHRTVNSWSGGYQGEVTVRAGSAAINGWTVSWTLGSGQTINQVWGGALTASGTAATVRNETWNGPVAAGASTTFGYIATGNAPTQPLACSAR [ESM060]” registered a melting temperature in data set [1] of 58.6 C. Moreover, in data set [2], the “purified protein yield per well” value is 279 µg. The PET hydrolysis was less than 3 in data set [3] (substrate: aFilm, 40 °C, pH 4.5); less than 3 in data set [3] (substrate: aFilm, 40 °C, pH 5.5); 1.5 ± 2.1 in data set [3] (substrate: aFilm, 40 °C, pH 6.5); 8 ± 1.4 in data set [3] (substrate: aFilm, 40 °C, pH 7.5); less than 3 in data set [3] (substrate: aFilm, 60 °C, pH 4.5); less than 3 in data set [3] (substrate: aFilm, 60 °C, pH 5.5). Further, the PET hydrolysis in data set [3] (substrate: aFilm, 60 °C, pH 6.5) is less than 3; in data set [3] (substrate: aFilm, 60 °C, pH 7.5), less than 3; in data set [3] (setting [12]), less than 3; in data set [3] (setting [4]), 11.5 ± 2.1; in data set [3] (setting [5]), 24.5 ± 2.1; in data set [3] (setting [6]), 38 ± 1.4. In addition, the PET hydrolysis in data set [3] (setting [13]) was less than 3; in data set [3] (setting [8]), less than 3; in data set [3] (setting [9]), 5.5 ± 0.71; in data set [3] (setting [10]), 12.5 ± 0.71.
Take “AQENPYERGPAPTAQNITEDGPFAYATATVPAQSGFAGGAIYYPTDTSQGTFGAVAAVPGFLTPVDDVAWMGPRLASHGFVVFTIEPNSRFEFPSGRAAALKAGLTYLTQSSAVRDRVDPTRLAVAGHSMGGGAALEAALKDPNLKAAVALQPWHTGVNFSTVNVPSMIVGAENDPIASPASHAEPFYEQIPAASEKAYLNLAGVGHEVGGVVTNDTQSSMMLTWLKRYVDNDTRYEPFMCPGPSGSSVLEYRGTCPG [TEP170]”: the melting temperature in data set [1] was 49.3 C. Further, the “purified protein yield per well” value in data set [2] is 137 µg. In addition, the PET hydrolysis in data set [3] (setting [12]), in data set [3] (setting [4]), in data set [3] (setting [5]), in data set [3] (setting [6]), in data set [3] (setting [13]) and in data set [3] (setting [8]) was less than 3 each time. Also, the PET hydrolysis in data set [3] (setting [9]) and in data set [3] (setting [10]) was less than 3 each time.
For “ADNPYERGPDPTERSIEAARGPFGVSTERVGSLGVSDFGGATIYHPTDRSQTYGAIAISPGFTAGWTSLSWLGERLASQGFVVIGIDTITRLDQPGSRGRQLLAALDYATTRSNARALIDAQRLAVAGHSMGGGGTLEAAAERPSLKAAIPLAPWNLDKSWAEVRTPTLIIGGESDNIAAVNTHSIPFYNSLSNAREKAYMEIDNGTHFFPNTANTLMAKYMISWMKRYIDDDTRYEQFLCPPPDDRGISEYRHTCPGS [DP088]”, the melting temperature in data set [1] was 43.9 C. Moreover, the “purified protein yield per well” value in data set [2] stood at 70 µg. The PET hydrolysis in data set [3] (setting [4]), in data set [3] (setting [5]), in data set [3] (setting [6]), in data set [3] (setting [7]), in data set [3] (setting [8]) and in data set [3] (setting [9]) was less than 3 in each case. For the same sequence, the PET hydrolysis in data set [3] (setting [10]) and in data set [3] (setting [11]) was less than 3 in each case.
For “ADNPYQRGPDPSRTSVATETGPFANASVSVPTGYGFNGGRIYYPTDSSQGTFGAIAISPGYTALFSAELAWMGPWLASHGFVVIGIETNSRNDFDTARGTQLLAALDYLTQQSPVRDRVDPNRLAVAGHSMGGGGALSAAVRRSSLKAAVGIAPYSPSSNLANDRVPTMVFSGQADTVVTPSYAIGLYNSLPTTTESVYLEVAGADHGFMVGRSNPVMIRTMLPFVKMFIDNDTRYSQFLCPLLDSSGVVTYRSTCPLLPTTPTTPPVNPTTPPVNPTVSPTGAPGSASEIVGVQSGRCVDVPNASRTNGTRVQLYDCNRQSQQSWTYTSGRQLRVYGDMCLDAAGSGNGAAVQIYACHSQTNQQWNVNSNGTISGVQSGRCLDVWSTANGAQVQLYDCHGQTNQRFNVMPLAR [TEP092]”, in data set [1], the melting temperature worked out at 60.4 C. In data set [2], the “purified protein yield per well” value came to 154 µg. For the same sequence, the PET hydrolysis in data set [3] (setting [12]) was 5; in data set [3] (setting [4]) it was 10; in data set [3] (setting [5]), 8; in data set [3] (setting [6]) it was 3; in data set [3] (setting [13]), less than 3; in data set [3] (setting [8]), less than 3. For the same sequence, the PET hydrolysis in data set [3] (setting [9]) and in data set [3] (setting [10]) was less than 3 throughout.

Source of the values: the supplement of paper PMC12455559.
